According to patent publication US20240124539A1, “CROSSLINKED HELIX DIMER MIMICS OF SOS AND METHODS OF USING SAME” (NEW YORK UNIVERSITY, priority 2020, published 2024):
Positions of bridges follow the written chain, without caps; N, C: chain ends. Non-standard residues stand in square brackets, D forms with d. Chains are numbered I, II in the order given. No end group written: not given here. *: point of attachment. dibenzylether crosslinker = scaffold alkylating both cysteine thiols (drawn in Scheme 1 and; FITC = O=C1OC2(c3ccc(O)cc3Oc3cc(O)ccc32)c2ccc(NC(=S)*)cc21; hArg = N=C(N)NCCCC[C@H](N)C(=O)O; βAla = NCCC(=O)O

How the values were obtained:
[1] = molecular target: K-Ras (endogenous, H358 cells) (human), P01116; test: cell-based or functional assay
[2] = molecular target: T1, fluorescently-labeled wild-type H-Ras-GDP (MST), P01112; test: microscale thermophoresis; AFDye 647-labelled wild-type H-Ras-GDP with serial dilutions of the CHD
[3] = molecular target: T2, G12V mutant His6-tagged H-Ras (1-166) pre-loaded with GDP, P01112; test: microscale thermophoresis (column MST); AFDye 647-labelled G12V H-Ras-GDP with serial dilutions of the unlabelled CHD
[4] = molecular target: T1, fluorescently-labeled wild-type …; test: microscale thermophoresis, dye-labelled H-Ras-GDP (5-10 nM), CHD titrated
[5] = molecular target: G12D mutant His6-tagged H-Ras (1-166) pre-loaded with GDP, P01112; test: direct fluorescence polarization (FP); fluorescein-labelled CHD titrated with GDP-loaded His6-H-Ras G12D
[6] = molecular target: T3, wild-type His6-tagged H-Ras (1-166) pre-loaded with GDP, P01112; test: direct fluorescence polarization (FP); fluorescein-labelled CHD titrated with GDP-loaded His6-H-Ras
[7] = molecular target: T3, wild-type His6-tagged H-Ras (1-166) …; test: fluorescence polarization, fluorescein-labelled CHD (15 nM), His6-H-Ras-GDP titrated
[8] = molecular target: G12C mutant His6-tagged H-Ras (1-166) pre-loaded with GDP, P01112; test: direct fluorescence polarization (FP); fluorescein-labelled CHD titrated with GDP-loaded His6-H-Ras G12C
[9] = molecular target: T2, G12V mutant His6-tagged H-Ras (1-166) …; test: direct fluorescence polarization (FP); fluorescein-labelled CHD titrated with GDP-loaded His6-H-Ras G12V
[10] = molecular target: T3, wild-type His6-tagged H-Ras (1-166) …; test: direct fluorescence polarization; fluorescein-labelled CHD titrated with GDP-loaded WT H-Ras
[11] = molecular target: KRAS (Homo sapiens), P01116; test: photoaffinity crosslinking in H358 cells, TMT MS proteomics; vs control probe CP-266
[12] = molecular target: KRAS (Homo sapiens), P01116; test: photoaffinity crosslinking in H358 cells, TMT MS proteomics

B1: CHD^Sos-5 (designed binder)
chain 1: WIGRLCTEI[hArg]RLRNGN
chain 2: Ac-LAWRLRELERELARLC-NH2
modifications: linker I:6-II:16 via dibenzylether crosslinker; not fully specified (N-terminus, C-terminus)
B1 was tested. Which ERK activation levels (ERK phosphorylation, Western blot, H358 cells) [1] did it give?
The ERK activation levels (ERK phosphorylation, Western blot, H358 cells) was under 1 µM.

And the EC50 (read off the curve) [2]?
Its EC50 (read off the curve) is 0.2 µM.

What about the Kd [3] of the same binder?
Its Kd is 2.7 µM.

What about the Kd [4] of the same binder?
The Kd was 0.3 µM.

B2: FITC-CHD^Sos-5 (designed binder)
chain 1: Ac-WIGRLCTEI[hArg]RLRNGN-NH2
chain 2: {FITC}-[βAla]LAWRLRELERELARLC-NH2
modifications: linker I:6-II:17 via dibenzylether crosslinker
What does the source list for B2?
Kd [5]: 17.9 µM; Kd [6]: 1.9 µM; Kd [7]: 2 µM; Kd [8]: 16.1 µM; Kd [9]: 13.4 µM

B3: FITC-CHD^Sos-1 (designed binder)
chain 1: Ac-FIGRLCTEILKLREGN-NH2
chain 2: {FITC}-[βAla]LAWRLRELERELARLC
modifications: linker I:6-II:17 via dibenzylether crosslinker; not fully specified (C-terminus)
Which results are given for B3?
Kd [10]: 32.2 µM; Kd [7]: 32 µM

B4: DZ2-CHD^Sos-5 (designed binder)
chain 1: WIGRLCTEIKRLRNGN
chain 2: LAWRLRELERELARLC
modifications: not checked
With B4 as the binder, how does the Fold [11] read?
The Fold was 6.63 fold.

What about the log2(fold) [11] of the same binder?
Its log2(fold) is 2.73.

What about the Average Abundance [12] of the same binder?
Its Average Abundance is 825.
